Patent US20240317847A1 (Bayer, published 2024)

Key:
human IL-11 = molecular target: T1, human IL-11 (human, UniProt P20809 22-199); assay: Tri-complex ELISA, hIL-11 + mIL-11Ra-Fc + hgp130-Fc, inhibition of complex formation
T1 construct: Invigate recombinant protein; biotinylated when immobilized in the Di-complex ELISA; also called hIL11; hIL-11
T1 sequence: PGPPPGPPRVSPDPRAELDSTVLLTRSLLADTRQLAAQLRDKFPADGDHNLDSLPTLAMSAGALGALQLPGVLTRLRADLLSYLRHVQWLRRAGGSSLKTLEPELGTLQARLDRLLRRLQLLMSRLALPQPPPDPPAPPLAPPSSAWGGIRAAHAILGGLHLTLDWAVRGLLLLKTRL
Method: In the Tri-complex ELISA format IL-11 antibodies are tested for their ability to inhibit the formation of a complex consisting of murine or human gp130-Fc fusion protein, with murine or human IL-11, and a murine IL11RA-Fc fusion protein. The assay format was adapted according to FIG. 18 (a, b), depending on whether murine or human IL-11 IgG antibodies were tested.
IgG converted antibodies were subjected to the experimental assay procedure described in Example 19 and IC50 [M], respectively efficacy (%) were calculated accordingly.

[1] = molecular target: T2, human IL-11 (Invigate, e.g., lot #C121021-19) (human, UniProt P20809 22-199); assay: cell-based or functional assay
T2 sequence: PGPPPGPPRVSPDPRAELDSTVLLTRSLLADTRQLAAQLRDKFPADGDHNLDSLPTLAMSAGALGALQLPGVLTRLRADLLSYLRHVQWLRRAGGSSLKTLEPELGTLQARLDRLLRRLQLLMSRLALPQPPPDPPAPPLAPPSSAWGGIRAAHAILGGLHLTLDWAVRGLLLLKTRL

[2] = molecular target: T3, murine IL-11 (Invigate, e.g., lot #C210819-09) (mouse, UniProt P47873 22-199); assay: cell-based or functional assay
T3 sequence: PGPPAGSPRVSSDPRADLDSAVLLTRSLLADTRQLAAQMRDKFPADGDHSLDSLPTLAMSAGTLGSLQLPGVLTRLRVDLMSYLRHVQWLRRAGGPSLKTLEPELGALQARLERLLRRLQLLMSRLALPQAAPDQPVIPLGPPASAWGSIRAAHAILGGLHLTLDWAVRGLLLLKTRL

[3] = molecular target: T4, human IL2Ra (Peprotech, Germany, #200-02RC) (human, UniProt P01589 22-240); assay: direct binding ELISA on coated IL2Ra, antibody at 3.3E-7 [M]
T4 construct: Coated on the ELISA plate; also called hIL2Ra; IL-2 receptor alpha
T4 sequence (looked up): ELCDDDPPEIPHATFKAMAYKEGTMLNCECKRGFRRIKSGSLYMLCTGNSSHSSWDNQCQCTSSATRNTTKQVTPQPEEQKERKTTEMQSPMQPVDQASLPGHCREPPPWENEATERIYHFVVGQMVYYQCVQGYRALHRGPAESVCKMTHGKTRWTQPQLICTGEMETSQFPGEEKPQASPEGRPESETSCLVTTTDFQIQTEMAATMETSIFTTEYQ
Method: IL2RA (Peprotech, Germany, #200-02RC) was coated at 1 or 0 μg/ml (buffer only control) in 30 μl coating buffer (Candor, #113500) per well on a 384 well microtiter plate (Maxisorb, Nunc, #460518) over night at 4-8° C. After two washes with 50 μl/well washing buffer (PBS+0.05% Tween, pH 7.4), the plates were incubated for two hours at room temperature with 50 μl/well SmartBlock (Candor, #113500). After blocking, the plates were washed three times with washing buffer. […] After three additional washes, 30 μl anti mouse IgG HRP-conjugated antibody (Biotechne, HAF007), diluted 1:1000 in PBS+0.05% Tween (pH 7.4), were added per well and incubated for one hour. After three additional washes, a mixture of Amplex red (Invitrogen, #12222, 10 mM stock solution in DMSO) 1:1000 diluted in PBS and H2O2 (30%, Merck, #107209)) diluted 1:10000 in PBS were added as substrate with 30 μl per well and incubated for 20 min in the dark. Relative fluorescence was measured with a microtiter plate reader at 535/590 nm.

human IL2Ra = molecular target: T5, human IL2Ra (human, UniProt P01589 22-240, limits assumed); assay: ELISA on coated IL2Ra, signal ratio to isotype control
T5 construct: coated on the ELISA plate; also called IL-2 receptor alpha
T5 sequence (looked up): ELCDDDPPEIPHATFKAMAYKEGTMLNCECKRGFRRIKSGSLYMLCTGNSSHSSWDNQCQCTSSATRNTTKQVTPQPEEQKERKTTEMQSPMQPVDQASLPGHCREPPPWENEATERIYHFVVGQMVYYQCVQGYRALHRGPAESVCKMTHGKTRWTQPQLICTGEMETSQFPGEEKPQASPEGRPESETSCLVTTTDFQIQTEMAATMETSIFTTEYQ
Method: IL2RA (Peprotech, Germany, #200-02RC) was coated at 1 or 0 μg/ml (buffer only control) in 30 μl coating buffer (Candor, #113500) per well on a 384 well microtiter plate (Maxisorb, Nunc, #460518) over night at 4-8° C. After two washes with 50 μl/well washing buffer (PBS+0.05% Tween, pH 7.4), the plates were incubated for two hours at room temperature with 50 μl/well SmartBlock (Candor, #113500). After blocking, the plates were washed three times with washing buffer. Then, a dilution series of the respective antibody (1E-7 [M] down to 2E-13 [M]) in PBS+0.05% Tween, 10% SmartBlock were added in 30 μl to the microtiter plate and incubated for 90 min at room temperature. After three additional washes, 30 μl anti mouse IgG HRP-conjugated antibody (Biotechne, HAF007), diluted 1:1000 in PBS+0.05% Tween (pH 7.4), were added per well and incubated for one hour. […] Relative fluorescence was measured with a microtiter plate reader at 535/590 nm.
Bispecific antibodies were subjected to the experimental assay procedure described in Example 20. Ratios of the signals generated at an antibody concentration of 1E-07 [M] by the respective bispecific antibody versus those of an isotype control antibody were calculated and are shown in Table E29. […]

B1: TPP-29519 (antibody, mouse IgG1)
heavy: QVQLVESGGGVVQPGRSLRLSCAASGFTFSHYDMHWVRQAPGKGLEWVAVISYHGSVKFYADSVKGRFTISRDNSKNTLYLQMNSLRAEDTAVYYCARTPGFHFDYWGQGTLVTVSSAKTTPPSVYPLAPGSAAQTNSMVTLGCLVKGYFPEPVTVTWNSGSLSSGVHTFPAVLQSDLYTLSSSVTVPSSTWPSETVTCNVAHPASSTKVDKKIVPRDCGCKPCICTVPEVSSVFIFPPKPKDVLTITLTPKVTCVVVDISKDDPEVQFSWFVDDVEVHTAQTQPREEQFNSTFRSVSELPIMHQDWLNGKEFKCRVNSAAFPAPIEKTISKTKGRPKAPQVYTIPPPKEQMAKDKVSLTCMITDFFPEDITVEWQWNGQPAENYKNTQPIMDTDGSYFVYSKLNVQKSNWEAGNTFTCSVLHEGLHNHHTEKSLSHSPGK
light: QSVLTQPPSASGTPGQRVTISCSGSSSNIGSNYVSWYQQLPGTAPKLLIYYDDLRPSGVPDRFSGSKSGTSASLAISGLRSEDEADYYCSAWDDSLSGVVFGGGTKLTVLGQPKSSPSVTLFPPSSEELETNKATLVCTITDFYPGVVTVDWKVDGTPVTQGMETTQPSKQSNNKYMASSYLTLTARAWERHSSYSCQVTHEGHTVEKSLSRADCS
notes: mIgG1, Lambda
Efficacy (%) (human IL-11): 81.3%
IC50 (human IL-11): 0.0024 µM

B2: TPP-29528 (antibody, mouse IgG1)
heavy: EVQLLESGGGLVQPGGSLRLSCAASGFTFSSYGMHWVRQAPGKGLEWVAVISYDGSYKYYADSVKGRFTISRDNSKNTLYLQMNSLRAEDTAVYYCAAGVPDYWGQGTLVTVSSAKTTPPSVYPLAPGSAAQTNSMVTLGCLVKGYFPEPVTVTWNSGSLSSGVHTFPAVLQSDLYTLSSSVTVPSSTWPSETVTCNVAHPASSTKVDKKIVPRDCGCKPCICTVPEVSSVFIFPPKPKDVLTITLTPKVTCVVVDISKDDPEVQFSWFVDDVEVHTAQTQPREEQFNSTFRSVSELPIMHQDWLNGKEFKCRVNSAAFPAPIEKTISKTKGRPKAPQVYTIPPPKEQMAKDKVSLTCMITDFFPEDITVEWQWNGQPAENYKNTQPIMDTDGSYFVYSKLNVQKSNWEAGNTFTCSVLHEGLHNHHTEKSLSHSPGK
light: QSVLTQPPSASGTPGQRVTISCSGSSSNIGSDYDVHWYQQLPGTAPKLLIYSNEERPSGVPDRFSGSKSGTSASLAISGLRSEDEADYYCSAWDSSLSGPVFGGGTKLTVLGQPKSSPSVTLFPPSSEELETNKATLVCTITDFYPGVVTVDWKVDGTPVTQGMETTQPSKQSNNKYMASSYLTLTARAWERHSSYSCQVTHEGHTVEKSLSRADCS
notes: mIgG1, Lambda
Efficacy (%) (human IL-11): 94.7%
IC50 (human IL-11): 0.001 µM

B3: TPP-18087 (antibody, mouse IgG1, V domains shown)
VH: EVQLLESGGGLVQPGGSLRLSCAASGFTFSHYDMNWLRQAPGKGLEWVGVISYDGSNKFYADFVKGRFTISRDNSKNTLYLQMNSLRAEDTAVYYCARTPGSHFDYWGQGTLVTVSS
VL: QSVLTQPPSASGTPGQRVTISCSGSSSNIGNNAVNWYQQLPGTAPKLLIYYDDLLPSGVPDRFSGSKSGTSASLAISGLRSEDEADYYCSAWDDSLNGVVFGGGTKLTVLG
notes: mIgG1, Lambda
Efficacy (%), Stat3 reporter gene assay, human IL11RA, 0.78 nM hIL-11 [1]: 51.5%
IC50 [M], Stat3 reporter gene assay, HEK 293F transfected with human IL11RA, 0.78 nM hIL-11 [1]: 1.07e-07 M
Efficacy (%), Stat3 reporter gene assay, mouse Il11ra, 3.13 nM mIL-11 [2]: 49%
IC50 [M], Stat3 reporter gene assay, HEK 293F transfected with mouse Il11ra, 3.13 nM mIL-11 [2]: 3.31e-07 M
ratio of the signals versus the isotype control TPP-10159 [3]: 2.4

B4: TPP-19528 (antibody, mouse IgG1, V domains shown)
VH: EVQLLESGGGLVQPGGSLRLSCAASGFTFSIYAMSWVRQAPGKGLEWVSSISDTGDRTYYADSVKGRFTISRDNSKNTLYLQMNSLRAEDTAVYYCARSNWGSLDYWGQGTLVTVSS
VL: QSVLTQPPSASGTPGQRVTISCSGSSSNIGSNYVYWYQQLPGTAPKLLIYYDDLLPSGVPDRFSGSKSGTSASLAISGLRSEDEADYYCAAWDDSLSGRVFGGGTKLTVLG
notes: mIgG1, Lambda
Efficacy (%), Stat3 reporter gene assay, human IL11RA, 0.78 nM hIL-11 [1]: 65.6%
IC50 [M], Stat3 reporter gene assay, HEK 293F transfected with human IL11RA, 0.78 nM hIL-11 [1]: 1.5e-08 M
Efficacy (%), Stat3 reporter gene assay, mouse Il11ra, 3.13 nM mIL-11 [2]: 80.7%
IC50 [M], Stat3 reporter gene assay, HEK 293F transfected with mouse Il11ra, 3.13 nM mIL-11 [2]: 9.6e-09 M
ratio of the signals versus the isotype control TPP-10159 [3]: 0.8

B5: TPP-29603 (bispecific antibody, IgG1)
chain 1: QVQLVESGGGVVQPGRSLRLSCAASGFTFSHYDMHWVRQAPGKGLEWVAVISYHGSVKFYADSVKGRFTISRDNSKNTLYLQMNSLRAEDTAVYYCARTPGFHFDYWGQGTLVTVSSGGGGSGGGGSGGGGSQSVLTQPPSASGTPGQRVTISCSGSSSNIGSNYVSWYQQLPGTAPKLLIYYDDLRPSGVPDRFSGSKSGTSASLAISGLRSEDEADYYCSAWDDSLSGVVFGGGTKLTVLGGGGSGGGGSGGGGSGVECPPCPAPPVAGPSVFIFPPKPKDVLTITLTPKVTCVVVDISKDDPEVQFSWFVDDVEVHTAQTQPREEQFNSTFRSVSELPIMHQDWLNGKEFKCRVNSAAFPAPIEKTISKTKGRPKAPQVYTIPPCKEQMAKDKVSLWCMITDFFPEDITVEWQWNGQPAENYKNTQPIMDTDGSYFVYSKLNVQKSNWEAGNTFTCSVLHEGLHNHHTEKSLSHSPGK
chain 2: EVQLLESGGGLVQPGGSLRLSCAASGFTFSSYGMHWVRQAPGKGLEWVAVISYDGSYKYYADSVKGRFTISRDNSKNTLYLQMNSLRAEDTAVYYCAAGVPDYWGQGTLVTVSSGGGGSGGGGSGGGGSQSVLTQPPSASGTPGQRVTISCSGSSSNIGSDYDVHWYQQLPGTAPKLLIYSNEERPSGVPDRFSGSKSGTSASLAISGLRSEDEADYYCSAWDSSLSGPVFGGGTKLTVLGGGGSGGGGSGGGGSGVECPPCPAPPVAGPSVFIFPPKPKDVLTITLTPKVTCVVVDISKDDPEVQFSWFVDDVEVHTAQTQPREEQFNSTFRSVSELPIMHQDWLNGKEFKCRVNSAAFPAPIEKTISKTKGRPKAPQVCTIPPPKEQMAKDKVSLSCAITDFFPEDITVEWQWNGQPAENYKNTQPIMDTDGSYFVVSKLNVQKSNWEAGNTFTCSVLHEGLHNHHTEKSLSHSPGK
notes: scFv-kih-mIgG1; bispecific comprising CDRs of TPP-29528 and TPP-29519
binding result (human IL2Ra): no binding (tested: 1E-07 M antibody)
